Measurements published in patent publication US20040180811A1 (NEW ENGLAND MEDICAL CENTER HOSPITAL, published 2004).
Positions count from the first letter of the chain named.

Key:
[1] = target: T1, GST-MBSLZ (amino acids 847-1030 of MBS, includes the leucine zipper domain) (human, UniProt O14974 847-1030); test: purified protein interaction, His fusions on Ni-NTA beads, anti-GST immunoblot
T1 construct: range 847-1030; also called wild type C terminal MBS; not shown: glutathione S-transferase (GST) tag
T1 sequence (looked up): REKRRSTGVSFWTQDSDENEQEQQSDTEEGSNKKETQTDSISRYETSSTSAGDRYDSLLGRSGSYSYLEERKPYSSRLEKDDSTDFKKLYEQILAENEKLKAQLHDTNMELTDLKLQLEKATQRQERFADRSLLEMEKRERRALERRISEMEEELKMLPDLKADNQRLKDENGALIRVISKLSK
Description: FIG. 4F show a series of immunoblots representing a purified protein interaction assay in which similar quantities of 6×his CC1, CC2, and CC3 bound to Ni-NTA beads were incubated with purified soluble GST-MBSLZ or GST-MBSLZ mutant. Bound GST-MBSLZ and GST-MBSLZ mutant were detected using anti-GST antibodies.
(§1) For fusion protein interactions with proteins from cell lysates, confluent cells were rinsed twice with ice cold PBS, lysed in buffer A, incubated for 1 hour at room temperature, then centrifuged at 14,000 rpm for 20 minutes at 40C. The supernatant was mixed with GST-fusion proteins prebound to glutathione agarose beads. After overnight incubation at 40C, the beads were washed with buffer C, eluted with SDS sample buffer and bound proteins were analyzed by immunoblotting. For fusion protein interactions with purified proteins, fusion proteins immobilized on beads were incubated in buffer A for one hour with purified soluble protein previously eluted from beads. After incubation, the beads were washed three times with buffer C, bound proteins were eluted in SDS sample buffer and analyzed by immunoblotting with anti-GST antibodies.

[2] = target: T2, MBS-Cterm-pGBT9 (human MBS base pairs 2043-3090 fused to the Gal4 DNA binding domain) (human, UniProt P04386 1-147; O14974 682-1030); test: yeast two-hybrid
T2 construct: Bait of the yeast 2-hybrid screen
From the text: Human MBS-Cterm, base pairs 2043-3090 (kind gift of Dr. Masaaki Ito) was cloned into the EcoR1 site of yeast 2-hybrid vectors pGBT9 and pGAD424, expressing MBS fusion proteins with Gal4 DNA binding domain and DNA activating domain, respectively. Expression of MBS-Cterm in yeast was confirmed by dimerization when MBS-Cterm-pGBT9 and MBS-Cterm-pGAD424 were coexpressed in yeast (data not shown). Yeast strain Y190 was sequentially transformed with MBSCterm- pGBT9 and a human aorta cDNA library (Clontech) using the lithium acetate method. Interactions were identified by growth on selective media, and confirmed by colony lift filter β-galactosidase assay. The cDNA library plasmid was extracted from confirmed positive yeast colonies, and sequenced at the Tufts Core Sequencing Facility.

[3] = target: T3, GFP-MBSLZM (full-length GFP-MBS with the C-terminal domain of GST-MBSLZmutant) (human, UniProt O14974 1-1030); test: GST pull-down from lysate of transfected COS1 cells, anti-MBS immunoblot
T3 construct: also called GFP-MBSLZ mutant; not shown: GFP of the pEGFP vector
T3 sequence (looked up): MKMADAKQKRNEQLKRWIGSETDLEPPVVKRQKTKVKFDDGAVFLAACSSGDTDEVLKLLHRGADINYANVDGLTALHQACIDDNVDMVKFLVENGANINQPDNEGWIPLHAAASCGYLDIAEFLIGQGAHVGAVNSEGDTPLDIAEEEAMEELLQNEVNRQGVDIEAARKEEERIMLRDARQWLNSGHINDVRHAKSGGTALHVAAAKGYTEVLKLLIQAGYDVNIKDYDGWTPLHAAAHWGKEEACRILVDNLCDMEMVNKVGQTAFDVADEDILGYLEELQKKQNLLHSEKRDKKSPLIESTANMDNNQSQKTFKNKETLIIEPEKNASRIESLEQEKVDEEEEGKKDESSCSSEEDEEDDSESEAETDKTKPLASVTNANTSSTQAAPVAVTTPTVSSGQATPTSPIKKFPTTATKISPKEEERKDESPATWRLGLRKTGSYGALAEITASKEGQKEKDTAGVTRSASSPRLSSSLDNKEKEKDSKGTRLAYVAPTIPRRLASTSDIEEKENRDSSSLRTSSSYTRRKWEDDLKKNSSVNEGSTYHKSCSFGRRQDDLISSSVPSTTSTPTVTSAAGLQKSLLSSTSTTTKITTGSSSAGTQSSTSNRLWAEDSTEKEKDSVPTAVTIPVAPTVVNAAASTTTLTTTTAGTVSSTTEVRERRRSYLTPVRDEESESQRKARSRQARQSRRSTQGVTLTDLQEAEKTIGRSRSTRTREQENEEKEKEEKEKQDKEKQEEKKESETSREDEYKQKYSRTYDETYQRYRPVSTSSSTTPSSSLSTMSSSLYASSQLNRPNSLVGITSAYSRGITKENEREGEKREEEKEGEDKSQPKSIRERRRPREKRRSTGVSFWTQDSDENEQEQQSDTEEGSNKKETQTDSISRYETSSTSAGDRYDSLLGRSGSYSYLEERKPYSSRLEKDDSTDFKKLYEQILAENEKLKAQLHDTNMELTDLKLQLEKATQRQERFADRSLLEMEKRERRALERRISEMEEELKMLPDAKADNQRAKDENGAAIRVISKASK

[4] = target: T4, Myosin binding subunit (MBS) of myosin phosphatase, endogenous in human vascular smooth muscle cells (human, UniProt O14974 1-1030, limits assumed); test: GST pull-down from vascular smooth muscle cell lysate, anti-MBS immunoblot
T4 construct: In lysate it stands in the myosin phosphatase complex with PP1 and the 20 kD subunit; also called MYPT1
T4 sequence (looked up): T3 sequence (looked up) with A1007L, A1014L, A1021L, A1028L
From the text: Also shown is the same M-RIP domains expressed in COS1 cells as Flag-tagged proteins and immunoprecipitated with M2 antibody. The MBS immunoblot of the immunopellets is shown in the middle panel and the total cellular MBS content from each lysate used for immunoprecipitation is shown in the lower panel. Molecular weight size markers in kD are shown on the right.
Identical results were obtained in heterologous expression studies with epitope-tagged constructs for various M-RIP domains expressed in COS1 cells (FIG. 4B).
as §1

B1: 6×his CC2 (polyhistidine fusion of M-RIP coiled-coil domain 2) (other)
chain: AAMEETHQKKIEDLQRQHQRELEKLREEKDRLLAEETAATISAIEAMKNAHREEMERELEKSQRSQISSVNSDVEALRRQYLEELQSVQRELEVLSEQYSQKCLENAHLAQALEAERQALRQCQRENQELNAHNQELNNRLAAEITRLRTL
notes: not shown: polyhistidine (6xhis) tag of the pQE vector
- binding result [1]: binds

B2: MBS-Cterm-pGAD424 (human MBS base pairs 2043-3090 fused to the Gal4 DNA activating domain) (other, UniProt O14974 682-1030, looked up, not shown: large carriers)
chain: RKARSRQARQSRRSTQGVTLTDLQEAEKTIGRSRSTRTREQENEEKEKEEKEKQDKEKQEEKKESETSREDEYKQKYSRTYDETYQRYRPVSTSSSTTPSSSLSTMSSSLYASSQLNRPNSLVGITSAYSRGITKENEREGEKREEEKEGEDKSQPKSIRERRRPREKRRSTGVSFWTQDSDENEQEQQSDTEEGSNKKETQTDSISRYETSSTSAGDRYDSLLGRSGSYSYLEERKPYSSRLEKDDSTDFKKLYEQILAENEKLKAQLHDTNMELTDLKLQLEKATQRQERFADRSLLEMEKRERRALERRISEMEEELKMLPDLKADNQRLKDENGALIRVISKLSK
notes: domain: MBS-Cterm (base pairs 2043-3090)
- binding result [2]: binds

B3: GST-M-RIP545-878 (RhoA-binding domain plus the remaining carboxy-terminus of CC2) (other)
chain: AEFRPIQQALAQERVGGVGPADTHEPLRPEAESGELERERARRREERRKRFGMLDATDGPGTEDAALRMEVDRSPGLPMSDLKTHNVHVEIEQRWHQVETTPLREEKQVPIAPVHLSSEDGGDRLSTHELTSLLEKELEQSQKEASDLLEQNRLLQDQLRVALGREQSAREGYVLQATCERGFAAMEETHQKKIEDLQRQHQRELEKLREEKDRLLAEETAATISAIEAMKNAHREEMERELEKSQRSQISSVNSDVEALRRQYLEELQSVQRELEVLSEQYSQKCLENAHLAQALEAERQALRQCQRENQELNAHNQELNNRLAAEITRLRTL
notes: not shown: glutathione S-transferase (GST) tag of the pGEX vector
- binding result [3]: no binding

B4: GST-M-RIP545-823 (M-RIP RhoA-binding domain) (other)
chain: AEFRPIQQALAQERVGGVGPADTHEPLRPEAESGELERERARRREERRKRFGMLDATDGPGTEDAALRMEVDRSPGLPMSDLKTHNVHVEIEQRWHQVETTPLREEKQVPIAPVHLSSEDGGDRLSTHELTSLLEKELEQSQKEASDLLEQNRLLQDQLRVALGREQSAREGYVLQATCERGFAAMEETHQKKIEDLQRQHQRELEKLREEKDRLLAEETAATISAIEAMKNAHREEMERELEKSQRSQISSVNSDVEALRRQYLEELQSVQRELEVLS
notes: as for B3
- binding result [4]: no binding
